The text below walks through data of the supplement of paper PMC5998384.

The subject of data set [1] is HeLa Kyoto. Briefly: solubility change mitosis vs G1/S (difference of NP-40 vs SDS log2 ratios) (log2 ratio difference); higher = more soluble in mitosis.
The subject of data set [2] is HeLa Kyoto. Briefly: solubility in G1/S (NP-40 vs SDS abundance) (log2 ratio); higher = more soluble. As to conditions: cell cycle stage: G1/S.
In data set [3] the test system is HeLa Kyoto. The data set is described as follows: thermal stability score vs G1/S (z-score of summed log2 fold changes over temperatures); higher = more thermally stable than in G1/S.
The test system of data set [4] is HeLa Kyoto. Briefly: melting temperature (median over replicates), in situ; higher = more thermally stable.
[5] abbreviates: cell cycle stage: early G1 (4.5 h after nocodazole release).
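Throughout, for melting temperature (median over replicates), in situ: HeLa Kyoto cells synchronized by double thymidine or nocodazole block, proteins quantified by TMT10plex mass spectrometry, three independent biological replicates.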
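Throughout, for solubility change mitosis vs G1/S (difference of NP-40 vs SDS log2 ratios): synchronized HeLa Kyoto cells (double thymidine block for G1/S, nocodazole release for mitosis), protein amounts in NP-40 versus SDS lysates quantified by mass spectrometry, three biological replicates.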
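Throughout, for solubility in G1/S (NP-40 vs SDS abundance): HeLa Kyoto cells arrested at G1/S by double thymidine block, proteins quantified by TMT10plex mass spectrometry in mild NP-40 versus SDS extracts, three biological replicates.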
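Throughout, for thermal stability score vs G1/S (z-score of summed log2 fold changes over temperatures): synchronized HeLa Kyoto cells, proteins quantified by TMT10plex mass spectrometry, three biological replicates, mitosis taken 0.5 h after nocodazole release, G1/S directly after double thymidine block.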

Regarding “MYLQVETRTSSRLHLKRAPGIRSWSLLVGILSIGLAAAYYSGDSLGWKLFYVTGCLFVAVQNLEDWEEAIFDKSTGKVVLKTFSLYKKLLTLFRAGHDQVVVLLHDVRDVSVEEEKVRYFGKGYMVVLRLATGFSHPLTQSAVMGHRSDVEAIAKLITSFLELHCLESPTELSQSSDSEAGDPASQS [C17ORF62]”, the “solubility change mitosis (log2)” value in the data set on HeLa Kyoto [1] was -0.128. For the same sequence, the “solubility in G1/S (log2)” value in the data set on HeLa Kyoto [2] was -0.124. Further, the thermal stability score is -1.46 with HeLa Kyoto [3] (setting [5]) and -0.834 with HeLa Kyoto [3] (cell cycle stage: mitosis). In addition, the melting temperature in the data set on HeLa Kyoto [4] (cell cycle stage: G1/S) was 55 °C; in the data set with HeLa Kyoto [4] (cell cycle stage: mitosis), 55.1 °C.

On to “MADPRVRQIKIKTGVVKRLVKEKVMYEKEAKQQEEKIEKMRAEDGENYDIKKQAEILQESRMMIPDCQRRLEAAYLDLQRILENEKDLEEAEEYKEARLVLDSVKLEA [TBCA]”, for which the “solubility change mitosis (log2)” value in the data set with HeLa Kyoto [1] came to 0.298. Also, the “solubility in G1/S (log2)” value in the data set on HeLa Kyoto [2] was 0.241. For the same sequence, the thermal stability score is -7.45 in the data set with HeLa Kyoto [3] (setting [5]) and -6.72 in the data set with HeLa Kyoto [3] (cell cycle stage: mitosis). In addition, the melting temperature in the data set on HeLa Kyoto [4] (cell cycle stage: G1/S) is 55.4 °C; with HeLa Kyoto [4] (cell cycle stage: mitosis) it was 53 °C.

For the sequence “MTAVHAGNINFKWDPKSLEIRTLAVERLLEPLVTQVTTLVNTNSKGPSNKKRGRSKKAHVLAASVEQATENFLEKGDKIAKESQFLKEELVAAVEDVRKQGDLMKAAAGEFADDPCSSVKRGNMVRAARALLSAVTRLLILADMADVYKLLVQLKVVEDGILKLRNAGNEQDLGIQYKALKPEVDKLNIMAAKRQQELKDVGHRDQMAAARGILQKNVPILYTASQACLQHPDVAAYKANRDLIYKQLQQAVTGISNAAQATASDDASQHQGGGGGELAYALNNFDKQIIVDPLSFSEERFRPSLEERLESIISGAALMADSSCTRDDRRERIVAECNAVRQALQDLLSEYMGNAGRKERSDALNSAIDKMTKKTRDLRRQLRKAVMDHVSDSFLETNVPLLVLIEAAKNGNEKEVKEYAQVFREHANKLIEVANLACSISNNEEGVKLVRMSASQLEALCPQVINAALALAAKPQSKLAQENMDLFKEQWEKQVRVLTDAVDDITSIDDFLAVSENHILEDVNKCVIALQEKDVDGLDRTAGAIRGRAARVIHVVTSEMDNYEPGVYTEKVLEATKLLSNTVMPRFTEQVEAAVEALSSDPAQPMDENEFIDASRLVYDGIRDIRKAVLMIRTPEELDDSDFETEDFDVRSRTSVQTEDDQLIAGQSARAIMAQLPQEQKAKIAEQVASFQEEKSKLDAEVSKWDDSGNDIIVLAKQMCMIMMEMTDFTRGKGPLKNTSDVISAAKKIAEAGSRMDKLGRTIADHCPDSACKQDLLAYLQRIALYCHQLNICSKVKAEVQNLGGELVVSGVDSAMSLIQAAKNLMNAVVQTVKASYVASTKYQKSQGMASLNLPAVSWKMKAPEKKPLVKREKQDETQTKIKRASQKKHVNPVQALSEFKAMDSI [CTNNA1]”, the “solubility change mitosis (log2)” value in the data set on HeLa Kyoto [1] was -0.0404. Also, in the data set with HeLa Kyoto [2], the “solubility in G1/S (log2)” value stood at 0.402. In addition, the thermal stability score with HeLa Kyoto [3] (setting [5]) is -0.182; in the data set with HeLa Kyoto [3] (cell cycle stage: mitosis), -0.645. Further, the melting temperature turned out to be 52.6 °C in the data set on HeLa Kyoto [4] (cell cycle stage: G1/S) and 52.2 °C in the data set with HeLa Kyoto [4] (cell cycle stage: mitosis).

Consider “MNPEKDFAPLTPNIVRALNDKLYEKRKVAALEIEKLVREFVAQNNTVQIKHVIQTLSQEFALSQHPHSRKGGLIGLAACSIALGKDSGLYLKELIEPVLTCFNDADSRLRYYACEALYNIVKVARGAVLPHFNVLFDGLSKLAADPDPNVKSGSELLDRLLKDIVTESNKFDLVSFIPLLRERIYSNNQYARQFIISWILVLESVPDINLLDYLPEILDGLFQILGDNGKEIRKMCEVVLGEFLKEIKKNPSSVKFAEMANILVIHCQTTDDLIQLTAMCWMREFIQLAGRVMLPYSSGILTAVLPCLAYDDRKKSIKEVANVCNQSLMKLVTPEDDELDELRPGQRQAEPTPDDALPKQEGTASGGPDGSCDSSFSSGISVFTAASTERAPVTLHLDGIVQVLNCHLSDTAIGMMTRIAVLKWLYHLYIKTPRKMFRHTDSLFPILLQTLSDESDEVILKDLEVLAEIASSPAGQTDDPGPLDGPDLQASHSELQVPTPGRAGLLNTSGTKGLECSPSTPTMNSYFYKFMINLLKRFSSERKLLEVRGPFIIRQLCLLLNAENIFHSMADILLREEDLKFASTMVHALNTILLTSTELFQLRNQLKDLKTLESQNLFCCLYRSWCHNPVTTVSLCFLTQNYRHAYDLIQKFGDLEVTVDFLAEVDKLVQLIECPIFTYLRLQLLDVKNNPYLIKALYGLLMLLPQSSAFQLLSHRLQCVPNPELLQTEDSLKAAPKSQKADSPSIDYAELLQHFEKVQNKHLEVRHQRSGRGDHLDRRVVL [VAC14]”, for which the “solubility change mitosis (log2)” value in the data set with HeLa Kyoto [1] is -0.133. In addition, the “solubility in G1/S (log2)” value in the data set with HeLa Kyoto [2] is 0.0329. Moreover, the thermal stability score was -1.83 in the data set on HeLa Kyoto [3] (setting [5]) and -1.68 in the data set on HeLa Kyoto [3] (cell cycle stage: mitosis). In addition, the melting temperature with HeLa Kyoto [4] (cell cycle stage: G1/S) is 53.3 °C; in the data set with HeLa Kyoto [4] (cell cycle stage: mitosis), 53.9 °C.

In the case of “MGCFFSKRRKADKESRPENEEERPKQYSWDQREKVDPKDYMFSGLKDETVGRLPGTVAGQQFLIQDCENCNIYIFDHSATVTIDDCTNCIIFLGPVKGSVFFRNCRDCKCTLACQQFRVRDCRKLEVFLCCATQPIIESSSNIKFGCFQWYYPELAFQFKDAGLSIFNNTWSNIHDFTPVSGELNWSLLPEDAVVQDYVPIPTTEELKAVRVSTEANRSIVPISRGQRQKSSDESCLVVLFAGDYTIANARKLIDEMVGKGFFLVQTKEVSMKAEDAQRVFREKAPDFLPLLNKGPVIALEFNGDGAVEVCQLIVNEIFNGTKMFVSESKETASGDVDSFYNFADIQMGI [RP2]”, the “solubility change mitosis (log2)” value in the data set on HeLa Kyoto [1] is -0.158. For the same sequence, the “solubility in G1/S (log2)” value with HeLa Kyoto [2] was -0.343. Also, the thermal stability score is -0.738 with HeLa Kyoto [3] (setting [5]) and -0.982 in the data set on HeLa Kyoto [3] (cell cycle stage: mitosis). In addition, the melting temperature is 51.6 °C in the data set with HeLa Kyoto [4] (cell cycle stage: G1/S) and 51.1 °C in the data set on HeLa Kyoto [4] (cell cycle stage: mitosis).

For the sequence “MATGGYRTSSGLGGSTTDFLEEWKAKREKMRAKQNPPGPAPPGGGSSDAAGKPPAGALGTPAAAAANELNNNLPGGAPAAPAVPGPGGVNCAVGSAMLTRAAPGPRRSEDEPPAASASAAPPPQRDEEEPDGVPEKGKSSGPSARKGKGQIEKRKLREKRRSTGVVNIPAAECLDEYEDDEAGQKERKREDAITQQNTIQNEAVNLLDPGSSYLLQEPPRTVSGRYKSTTSVSEEDVSSRYSRTDRSGFPRYNRDANVSGTLVSSSTLEKKIEDLEKEVVRERQENLRLVRLMQDKEEMIGKLKEEIDLLNRDLDDIEDENEQLKQENKTLLKVVGQLTR [PAWR]”, the “solubility change mitosis (log2)” value in the data set on HeLa Kyoto [1] stood at 0.127. In addition, the “solubility in G1/S (log2)” value in the data set with HeLa Kyoto [2] amounted to 0.552. The thermal stability score was -0.931 in the data set on HeLa Kyoto [3] (setting [5]) and -1.76 in the data set on HeLa Kyoto [3] (cell cycle stage: mitosis). Also, the figures for the melting temperature in the data set on HeLa Kyoto [4] (cell cycle stage: G1/S) and in the data set with HeLa Kyoto [4] (cell cycle stage: mitosis) were 60.6 °C and 55.7 °C, respectively.

With “MADDAGLETPLCSEQFGSGEARGCRAAADGSLQWEVGGWRWWGLSRAFTVKPEGRDAGEVGASGAPSPPLSGLQAVFLPQGFPDSVSPDYLPYQLWDSVQAFASSLSGSLATQAVLLGIGVGNAKATVSAATATWLVKDSTGMLGRIVFAWWKGSKLDCNAKQWRLFADILNDVAMFLEIMAPVYPICFTMTVSTSNLAKCIVSVAGGATRAALTVHQARRNNMADVSAKDSSQETLVNLAGLLVSLLMLPLVSGCPGFSLGCFFFLTALHIYANYRAVRALVMETLNEGRLRLVLKHYLQRGEVLDPTAANRMEPLWTGFWPAPSLSLGVPLHRLVSSVFELQQLVEGHQESYLLCWDQSQNQVQVVLNQKAGPKTILRAATHGLMLGALQGDGPLPAELEELRNRVRAGPKKESWVVVKETHEVLDMLFPKFLKGLQDAGWKTEKHQLEVDEWRATWLLSPEKKVL [C16ORF58]”, the “solubility change mitosis (log2)” value with HeLa Kyoto [1] was -0.031. In addition, the “solubility in G1/S (log2)” value in the data set with HeLa Kyoto [2] was -0.224. In addition, the values for the thermal stability score in the data set with HeLa Kyoto [3] (setting [5]) and in the data set with HeLa Kyoto [3] (cell cycle stage: mitosis) were -0.365 and 0.0232, respectively. The figures for the melting temperature in the data set with HeLa Kyoto [4] (cell cycle stage: G1/S) and in the data set on HeLa Kyoto [4] (cell cycle stage: mitosis) were 53.7 °C and 53.8 °C, respectively.
